Values of other authors in publication PMC8844171 (Clinical Drug Investigation, 2022).
Read-outs that look alike come from different tables or passages of the source.

Tested on: patients with distal MCA or ICA occlusion

B1: alteplase: standard thrombolytic treatment for AIS (protein, UniProt P00750 36-562, looked up)
Tissue-type plasminogen …: SYQVICRDEKTQMIYQQHQSWLRPVLRSNRVEYCWCNSGRAQCHSVPVKSCSEPRCFNGGTCQQALYFSDFVCQCPEGFAGKCCEIDTRATCYEDQGISYRGTWSTAESGAECTNWNSSALAQKPYSGRRPDAIRLGLGNHNYCRNPDRDSKPWCYVFKAGKYSSEFCSTPACSEGNSDCYFGNGSAYRGTHSLTESGASCLPWNSMILIGKVYTAQNPSAQALGLGKHNYCRNPDGDAKPWCHVLKNRRLTWEYCDVPSCSTCGLRQYSQPQFRIKGGLFADIASHPWQAAIFAKHRRSPGERFLCGGILISSCWILSAAHCFQERFPPHHLTVILGRTYRVVPGEEEQKFEVEKYIVHKEFDDDTYDNDIALLQLKSDSSRCAQESSVVRTVCLPPADLQLPDWTECELSGYGKHEALSPFYSERLKEAHVRLYPSSRCTSQHLLNRTVTDNMLCAGDTRSGGPQANLHDACQGDSGGPLVCLNDGRMTLVGIISWGLGCGQKDVPGVYTKVTNYLDWIRDNMRP
Patients with ICA occlusion
  Recanalization rate: < 10%
Patients with distal MCA occlusion
  Recanalization rate: approximately 40%
